Measured values from PMC4403447, “Hsp90 regulates the dynamics of its cochaperone Sti1 and the transfer of Hsp70 between modules” (Nature Communications, 2015).

Legend:
Settings in all cases: both partners purified
[1] = target: T1, yHsp70 (Ssa1) (yeast, UniProt P10591 1-642); assay: SPR; Hsp70 amine-coupled to a CM5 chip, Sti1 variants as analyte; 40 mM Hepes pH 7.5, 20 mM KCl, 5 mM MgCl2, 0.005% Tween; 10 μl/min; 20 °C; Langmuir isotherm; affinities shown normalized to wild-type Sti1
T1 construct: Yeast Hsp70 Ssa1, full length; The strain carries a 6xHis-SSA1 gene; The methods speak of cleavage of the His6-SUMO tag or His-tag in general, and it is not clear whether this holds for Ssa1; source: Pichia pastoris KM71H-Ssa1, purified (Hi-Trap, Superdex 200)

[2] = target: T2, yHsp90 (Hsp82) (yeast, UniProt P02829 1-709); assay: AUC; ternary complexes, fluorescence detection: 0.5 μM fluorescein-labelled yHsp70 and 3 μM yHsp90 with 0.5 to 8 μM Sti1 variant; 10 mM potassium phosphate pH 7.5; 20 °C; 42,000 r.p.m.; dc/dt plots
T2 construct: Yeast Hsp90 Hsp82; source: E. coli BL21 (DE3) Codon Plus, purified (Hi-Trap, Superdex 200); not shown: 6xHis-SUMO or thrombin-cleavable 6xHis, N-terminal, cleaved

[3] = target: T3, fluorescein-labelled yHsp70 (Ssa1) (yeast, UniProt P10591 1-642, 5-(and -6)-carboxyfluorescein covalently coupled (amine-reactive dye); sites not stated); assay: as above
T3 construct: Yeast Hsp70 Ssa1, full length, labelled with carboxyfluorescein; Same protein as m11, with the fluorescent label used for AUC; also called fluorescently labelled yHsp70; fluorescently labelled Ssa1; source: Pichia pastoris KM71H-Ssa1, purified (Hi-Trap, Superdex 200), then labelled

[4] = target: T1, yHsp70 (Ssa1); assay: SAXS; mixtures of a Sti1 variant and Hsp70 at 1:1 and 1:2; solute 1 to 10 mg/ml; in-house SAXSess mc2; masses from I(0)

T1 sequence (P10591 whole entry): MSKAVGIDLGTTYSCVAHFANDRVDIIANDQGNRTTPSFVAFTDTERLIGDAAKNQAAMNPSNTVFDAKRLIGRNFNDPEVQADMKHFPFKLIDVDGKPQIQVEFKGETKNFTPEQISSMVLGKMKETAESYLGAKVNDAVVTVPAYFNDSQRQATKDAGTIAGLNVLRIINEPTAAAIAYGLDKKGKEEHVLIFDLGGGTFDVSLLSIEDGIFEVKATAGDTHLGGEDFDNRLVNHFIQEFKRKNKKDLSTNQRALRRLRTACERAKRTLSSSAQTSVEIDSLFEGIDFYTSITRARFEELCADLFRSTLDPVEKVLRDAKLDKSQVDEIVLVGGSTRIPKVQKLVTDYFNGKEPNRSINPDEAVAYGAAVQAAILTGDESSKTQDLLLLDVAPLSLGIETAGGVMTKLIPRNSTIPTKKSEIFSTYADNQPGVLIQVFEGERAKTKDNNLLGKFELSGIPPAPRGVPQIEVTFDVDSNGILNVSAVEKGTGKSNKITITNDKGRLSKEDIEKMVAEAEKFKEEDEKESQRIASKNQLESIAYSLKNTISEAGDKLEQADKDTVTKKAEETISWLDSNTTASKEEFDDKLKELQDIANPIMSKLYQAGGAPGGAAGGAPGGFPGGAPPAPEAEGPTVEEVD
T3 sequence (P10591 whole entry): as above

binding result [1] | binding result [2] | binding result [3] | stoichiometry N [4] | Binder
binds | binds | binds | – | Sti1 TPR2A–TPR2B (domain or fragment, S. cerevisiae, TPR2A-TPR2B segment of Sti1; also called TPR2A–TPR2B fragment; TPR1-lacking construct; source: E. coli BL21 (DE3) Codon Plus, purified (Hi-Trap, Superdex 200); not shown: 6xHis-SUMO or thrombin-cleavable 6xHis, N-terminal, cleaved) ADKEKAEGNKFYKARQFDEAIEHYNKAWELHKDITYLNNRAAAEYEKGEYETAISTLNDAVEQGREMRADYKVISKSFARIGNAYHKLGDLKKTIEYYQKSLTEHRTADILTKLRNAEKELKKAEAEAYVNPEKAEEARLEGKEYFTKSDWPNAVKAYTEMIKRAPEDARGYSNRAAALAKLMSFPEAIADCNKAIEKDPNFVRAYIRKATAQIAVKEYASALETLDAARTKDAEVNNGSSAREIDQLYYKASQ
– | – | – | 1 | Sti1 (stress-inducible protein 1), wild type (natural protein, S. cerevisiae, UniProt P15705 1-589, looked up, Sti1, yeast cochaperone of Hsp70 and Hsp90, full length; also called wild-type Sti1; full-length Sti1; source: E. coli BL21 (DE3) Codon Plus, purified (Hi-Trap, Superdex 200); not shown: 6xHis-SUMO or thrombin-cleavable 6xHis, N-terminal, cleaved) MSLTADEYKQQGNAAFTAKDYDKAIELFTKAIEVSETPNHVLYSNRSACYTSLKKFSDALNDANECVKINPSWSKGYNRLGAAHLGLGDLDEAESNYKKALELDASNKAAKEGLDQVHRTQQARQAQPDLGLTQLFADPNLIENLKKNPKTSEMMKDPQLVAKLIGYKQNPQAIGQDLFTDPRLMTIMATLMGVDLNMDDINQSNSMPKEPETSKSTEQKKDAEPQSDSTTSKENSSKAPQKEESKESEPMEVDEDDSKIEADKEKAEGNKFYKARQFDEAIEHYNKAWELHKDITYLNNRAAAEYEKGEYETAISTLNDAVEQGREMRADYKVISKSFARIGNAYHKLGDLKKTIEYYQKSLTEHRTADILTKLRNAEKELKKAEAEAYVNPEKAEEARLEGKEYFTKSDWPNAVKAYTEMIKRAPEDARGYSNRAAALAKLMSFPEAIADCNKAIEKDPNFVRAYIRKATAQIAVKEYASALETLDAARTKDAEVNNGSSAREIDQLYYKASQQRFQPGTSNETPEETYQRAMKDPEVAAIMQDPVMQSILQQAQQNPAALQEHMKNPEVFKKIQTLIAAGIIRTGR
binds | binds | binds | – | Sti1 N39A (natural protein, S. cerevisiae, UniProt P15705 1-589, looked up, also called TPR1-defective construct; source: E. coli BL21 (DE3) Codon Plus, purified (Hi-Trap, Superdex 200); not shown: 6xHis-SUMO or thrombin-cleavable 6xHis, N-terminal, cleaved) MSLTADEYKQQGNAAFTAKDYDKAIELFTKAIEVSETPAHVLYSNRSACYTSLKKFSDALNDANECVKINPSWSKGYNRLGAAHLGLGDLDEAESNYKKALELDASNKAAKEGLDQVHRTQQARQAQPDLGLTQLFADPNLIENLKKNPKTSEMMKDPQLVAKLIGYKQNPQAIGQDLFTDPRLMTIMATLMGVDLNMDDINQSNSMPKEPETSKSTEQKKDAEPQSDSTTSKENSSKAPQKEESKESEPMEVDEDDSKIEADKEKAEGNKFYKARQFDEAIEHYNKAWELHKDITYLNNRAAAEYEKGEYETAISTLNDAVEQGREMRADYKVISKSFARIGNAYHKLGDLKKTIEYYQKSLTEHRTADILTKLRNAEKELKKAEAEAYVNPEKAEEARLEGKEYFTKSDWPNAVKAYTEMIKRAPEDARGYSNRAAALAKLMSFPEAIADCNKAIEKDPNFVRAYIRKATAQIAVKEYASALETLDAARTKDAEVNNGSSAREIDQLYYKASQQRFQPGTSNETPEETYQRAMKDPEVAAIMQDPVMQSILQQAQQNPAALQEHMKNPEVFKKIQTLIAAGIIRTGR
binds | – | – | – | Sti1 R469A (natural protein, S. cerevisiae, UniProt P15705 1-589, looked up, source: E. coli BL21 (DE3) Codon Plus, purified (Hi-Trap, Superdex 200); not shown: 6xHis-SUMO or thrombin-cleavable 6xHis, N-terminal, cleaved) MSLTADEYKQQGNAAFTAKDYDKAIELFTKAIEVSETPNHVLYSNRSACYTSLKKFSDALNDANECVKINPSWSKGYNRLGAAHLGLGDLDEAESNYKKALELDASNKAAKEGLDQVHRTQQARQAQPDLGLTQLFADPNLIENLKKNPKTSEMMKDPQLVAKLIGYKQNPQAIGQDLFTDPRLMTIMATLMGVDLNMDDINQSNSMPKEPETSKSTEQKKDAEPQSDSTTSKENSSKAPQKEESKESEPMEVDEDDSKIEADKEKAEGNKFYKARQFDEAIEHYNKAWELHKDITYLNNRAAAEYEKGEYETAISTLNDAVEQGREMRADYKVISKSFARIGNAYHKLGDLKKTIEYYQKSLTEHRTADILTKLRNAEKELKKAEAEAYVNPEKAEEARLEGKEYFTKSDWPNAVKAYTEMIKRAPEDARGYSNRAAALAKLMSFPEAIADCNKAIEKDPNFVRAYIAKATAQIAVKEYASALETLDAARTKDAEVNNGSSAREIDQLYYKASQQRFQPGTSNETPEETYQRAMKDPEVAAIMQDPVMQSILQQAQQNPAALQEHMKNPEVFKKIQTLIAAGIIRTGR
